Measured values: US7901879B2, “Lactoferrin in the treatment of malignant neoplasms and other hyperproliferative diseases” (Agennix Incorporated, priority 2002, dated 2011)
Values joined by “and” are separate entries in the source; they are usually repeats but may differ in a detail not shown here. Equal values may be shown once. Marks after values point to notes of the source that are not given here.

Tests used:
[1] = test system: O12 human oropharyngeal squamous cell carcinoma tumor cells; experiment: Intratumoral rhLF in O12 tumors in nude mice (Example 17); format: in vivo, athymic nude mice
Protocol: O12 human oropharyngeal squamous cell carcinoma tumor cells were injected to the right flank of athymic nude mice. Recombinant human lactoferrin and vehicle controls were dosed via intratumoral injection. Each animal was administered different concentrations of rhLF in 50 μL doses consisting of four separate injections of approximately 12.5 μL of the dose, at different directions and angles (approximately S/N/E/W) to ensure that the dose was distributed evenly throughout the tumor (fanning).
In this study, rhLF was administered directly into the tumor. Each animal was tracked daily for tumor growth by external caliper measurements of the protruding tumor.

GM-CSF = GM-CSF production in small intestine after oral rhLF (ELISA); format: in vivo, mice; details: oral 300 mg/kg/day three days
Protocol: Recombinant human lactoferrin or placebo were orally administered to mice, and the production of GM-CSF in the small intestine was measured.
Mice (5 animals per group) were treated for three days daily with 300 mg/kg/day of rhLF. For a control, mice were only administered the pharmaceutical carrier. Twenty-four hours following administration of the LF or placebo for 3 days, animals were and the small intestinal tissue was removed for further analysis. Small intestinal epithelium was homogenized using a lysis buffer consisting of PBS, 1% Nonidet P-40, 0.5% sodium deoxycholate, and 0.1% sodium dodecyl sulphate containing 10 μg/ml PhenylMetheylsulfonyl fluoride. Homogenate was centrifuged at 15,000 rpm for 10 minutes and the supernatant stored at −80 C. till it was tested for GM-CSF levels using an ELISA kit.

[2] = test system: NK-activity against YAC targets; experiment: Ex vivo NK activity of spleen NK cells against YAC targets (LDH release) after oral rhLF; format: in vivo, Balb/c naïve mice; details: for % Cytotoxicity Increased over ctrl: rhLF minus placebo; for % Cytotoxicity Final: oral 300 mg/kg/day 3 days
Protocol: Balb/c naïve mice were treated orally with rhLF or placebo once a day for 3 days (see Table 4).
(§1) On day 4, mice were sacrificed and spleens were collected. NK cells were separated using a magnetic bead cell sorting assay (MACS anti-NK-DX5) and counted. Cells were then tested in vitro for NK-activity against YAC targets using a lactate dehydrogenase (LDH) release test.
as §1, with “Balb/c naïve mice were treated orally with rhLF or placebo once a” for “On”, “for 3 days. One day later (day 4),” for “4,”, “spleens” for “spleens were”

[3] = test system: murine squamous carcinoma cell line (SCCVII); experiment: SCCVII floor-of-mouth tumor growth, oral rhLF and/or cisplatin (Example 6); format: in vivo, immunocompetent C3H mice; details: rhLF alone 200 mg/kg oral once daily days 5-12
Protocol: A murine squamous carcinoma cell line (SCCVII) was injected into the floor of the mouth through the neck skin of immunocompetent C3H mice (Day 0). […] Tumors were measured in three dimensions with calipers.
Tumor-bearing mice were randomized into a control group and seven groups receiving rhLF and/or cisplatin. RhLF (4 mg; 200 mg/Kg) was administered once daily by oral gavage for 8 days on days 5 through 12. Cisplatin was administered as a single dose of 5 mg/Kg given intraperitoneally either at the start of rhLF (day 5), in the middle (day 8) or at the end (day 12) of rhLF therapy. Animals were sacrificed on day 12 post-implantation and the residual tumor masses were measured and processed for later additional analyses.

metastatic cancer = experiment: Oral rhLF in human patients with metastatic cancer, tumor size by CT; format: in vivo
Protocol: Recombinant human lactoferrin was orally administered to human patients with a range of metastatic cancer types that had failed standard chemotherapy in two different studies conducted in multiple centers in four countries (Argentina, Brazil, Chile, U.S.) RhLF was administered at doses of 1.5 to 9 grams daily in two divided doses in cycles of 14 each with a 14 day gap.
Tumor size progression was monitored through CT scans and tumor markers where available. CT scans were performed at baseline and after each 8-week period once treatment was initiated, and also compared with a pre-baseline scan conducted prior to enrollment in the study. Tumor markers are measured every 4 weeks. Blood samples were collected to measure subclasses of circulating lymphocytes and NK cell activity. Plasma, serum and blood cell extract samples were collected to measure circulating IL-18, IL-1, IL-2, and IL-4, IL-5, IL-10, IL-12 and IFN-γ.

[4] = test system: Human squamous cell carcinoma (O12); experiment: Tumor growth inhibition by rhLF in O12 tumor model in mice (Example 1); format: in vivo, athymic nude mice
Protocol: Human squamous cell carcinoma (O12) was used. The cells were injected into the right flank of athymic nude mice. rhLF was administered either intratumorally (49 animals, 7 doses ranging from 0.05 μg to 125 μg per dose), intravenously (7 animals, 125 ug/dose) or orally (7 animals 20 mg/dose). Control animals were treated with only the vehicle; no rhLF was administered to the control animals. rhLF was administered twice a day for either five days (intravenous group) or eight days (all other groups) starting 11 days after inoculation with tumor cells to allow formation of established tumors.
The efficacy of treatment was evaluated by measuring the solid tumor size during and at the end of the experiment; the body weights were also determined at the time of tumor measurements.

circulating lymphocytes = experiment: Circulating lymphocytes after intratumoral rhLF in tumor-bearing mice (Example 18); format: in vivo, C3H/HeJ mice
Protocol: Normal C3H/HeJ mice were implanted with one of two mouse tumors following the methodology described in Example 17. Tumors used were SCCVII and RIF mouse tumor cell lines. Following establishment of the tumors in the mice, tumors were injected intratumorally daily for 4 days with 250 or 500 μg rhLF per dose or with vehicle control. Twenty four hours following the last intratumoral injection, animals were sacrificed and the blood examined for lymphocyte populations. The number of circulating lymphocytes were increased by 34% to 56% relative to the placebo treated control animals (Table 14).

[5] = intratumoral 250 or 500 μg per dose daily for 4 days, blood 24 h after last injection

B1: Recombinant human lactoferrin (protein, UniProt P02788 20-710, looked up)
Lactotransferrin: GRRRSVQWCAVSQPEATKCFQWQRNMRKVRGPPVSCIKRDSPIQCIQAIAENRADAVTLDGGFIYEAGLAPYKLRPVAAEVYGTERQPRTHYYAVAVVKKGGSFQLNELQGLKSCHTGLRRTAGWNVPIGTLRPFLNWTGPPEPIEAAVARFFSASCVPGADKGQFPNLCRLCAGTGENKCAFSSQEPYFSYSGAFKCLRDGAGDVAFIRESTVFEDLSDEAERDEYELLCPDNTRKPVDKFKDCHLARVPSHAVVARSVNGKEDAIWNLLRQAQEKFGKDKSPKFQLFGSPSGQKDLLFKDSAIGFSRVPPRIDSGLYLGSGYFTAIQNLRKSEEEVAARRARVVWCAVGEQELRKCNQWSGLSEGSVTCSSASTTEDCIALVLKGEADAMSLDGGYVYTAGKCGLVPVLAENYKSQQSSDPDPNCVDRPVEGYLAVAVVRRSDTSLTWNSVKGKKSCHTAVDRTAGWNIPMGLLFNQTGSCKFDEYFSQSCAPGSDPRSNLCALCIGDEQGENKCVPNSNERYYGYTGAFRCLAENAGDVAFVKDVTVLQNTDGNNNEAWAKDLKLADFALLCLDGKRKPVTEARSCHLAMAPNHAVVSRMDKVERLKQVLLHQQAKFGRNGSDCPDKFCLFQSETKNLLFNDNTECLARLHGKTTYEKYLGPQYVAGITNLKKCSTSPLLEACEFLRK
notes: human lactoferrin produced recombinantly
With B1 the “reduction of rates of tumor growth versus pooled placebo” value ([1]; Group A, single intratumoral dose, day 11 after administration, p<0.05) was 50%, the “reduction of rates of tumor growth versus pooled control group” value ([1]; Group C, intratumoral twice daily for 8 days, p<0.01) was 56% and the “GM-CSF Mean (SEM)” value (GM-CSF; 24 h after last dose) was 7.74 (0.19) pg. The “GM-CSF Increase over Placebo” value (GM-CSF; p < 0.01) was 19.4% (p < 0.01), the “relative increase of NK activity over placebo-treated animals” value ([2]; 30:1 E:T ratio, p<0.05) was 243% and the “% Cytotoxicity Increased over ctrl” value ([2]; E:T ratio 3.7:1) was 0%. The “% Cytotoxicity Increased over ctrl” value ([2]; E:T ratio 7.5:1) was 0%, the “% Cytotoxicity Increased over ctrl” value ([2]; E:T ratio 15:1) was 1.3% and the “% Cytotoxicity Increased over ctrl” value ([2]; E:T ratio 30:1) was 7** %. For the same molecule, the “% Cytotoxicity Final” value ([2]; E:T ratio 3.7:1) was 0%, the “% Cytotoxicity Final” value ([2]; E:T ratio 7.5:1) was 0.44% and the “% Cytotoxicity Final” value ([2]; E:T ratio 15:1) was 4.12%. For the same molecule, the “% Cytotoxicity Final” value ([2]; E:T ratio 30:1, 300 mg/kg/day) was 10% and 9.81%, the “% Cytotoxicity Final” value ([2]; E:T ratio 30:1, listed as RhLF, 300 mg/kg/day) was 9.81% and the “TGI (%) Relative to Placebo” value [3] was 33%. For the same molecule, the “Post Treatment 1 % Growth” value (metastatic cancer; Patient # 007, Lung, 7.5 weeks, pretreatment 160% (5.5 weeks)) was 13% (7.5), the “Post Treatment 2 % Growth” value (metastatic cancer; Patient # 007, Lung, 8.5 weeks) was 12% (8.5) and the “Post Treatment 2 % Growth” value (metastatic cancer; Patient # 102, Ovarian, 8.5 weeks) was −7% (8.5). The “Post Treatment 1 % Growth” value (metastatic cancer; Patient # 102, Ovarian, 10.5 weeks, pretreatment 30% (21 weeks)) was −5% (10.5), the “Post Treatment 2 % Growth” value (metastatic cancer; Patient # 104, Gastric, 7 weeks) was −5% (7) and the “Post Treatment 1 % Growth” value (metastatic cancer; Patient # 104, Gastric, 10 weeks, pretreatment 25% (5.5 weeks)) was 10% (10). For the same molecule, the “Post Treatment 1 % Growth” value (metastatic cancer; Patient # 106, Melanoma, 11 weeks, pretreatment 24% (19 weeks)) was −18% (11), the “Post Treatment 2 % Growth” value (metastatic cancer; Patient # 204, Breast, 6.5 weeks) was 0% (6.5) and the “Post Treatment 1 % Growth” value (metastatic cancer; Patient # 204, Breast, 10 weeks, pretreatment 40% (8 weeks)) was 0% (10). The “patients with stable disease by the RECIST criteria at the first post-treatment scan” value (metastatic cancer; nine of nineteen evaluable patients, oral 1.5 to 9 grams daily) was 47%, the “Inhibition Relative to Placebo” value ([4]; intratumoral, twice a day for eight days, 0.05 μg to 125 μg per dose, Day 19) was 28% and the “Inhibition Relative to Placebo” value ([4]; intratumoral, twice a day for eight days, 0.05 μg to 125 μg per dose, Day 28) was 46%. For the same molecule, the “Inhibition Relative to Placebo” value ([4]; intravenous 125 ug/dose twice a day for five days, Day 19) was 55%, the “Inhibition Relative to Placebo” value ([4]; intravenous 125 ug/dose twice a day for five days, Day 28) was 65% and the “Inhibition Relative to Placebo” value ([4]; oral 20 mg/dose twice a day for eight days, Day 19) was 76%. The “Inhibition Relative to Placebo” value ([4]; oral 20 mg/dose twice a day for eight days, Day 28) was 80%, the “Number of Cells CD3+” value (circulating lymphocytes; [5]) was 3291 and the “Number of Cells CD4+” value (circulating lymphocytes; [5]) was 2621. The “Number of Cells CD8+” value (circulating lymphocytes; [5]) was 1054, the “Increase with rhLF, CD3+” value (circulating lymphocytes; relative to placebo) was 56% and the “Increase with rhLF, CD4+” value (circulating lymphocytes; relative to placebo) was 46%. The “Increase with rhLF, CD8+” value (circulating lymphocytes; relative to placebo) was 34%.
